Assay results from article doi:10.1101/2024.12.01.621710 (bioRxiv, 2024).
Values joined by “and” are separate entries in the source; they are usually repeats but may differ in a detail not shown here. Equal values may be shown once. Read-outs that look alike come from different tables or passages of the source.

How the values were obtained:
[1] = biological target: MBP-IncA C-ter (Chlamydia trachomatis serovar L2 (LGV 434/Bu)); test: SEC + other: mass photometry
[2] = biological target: MBP-InaC C-ter (Chlamydia trachomatis serovar L2 (LGV 434/Bu)); test: SEC + other: mass photometry
[3] = biological target: MBP-IPAM C-ter (Chlamydia trachomatis serovar L2 (LGV 434/Bu)); test: SEC + other: mass photometry
[4] = biological target: the molecule itself
[5] = biological target: the molecule itself; test: SEC + other: mass photometry

MBP-IncA C-ter (domain or fragment)
stoichiometry N [1]: 4

MBP-InaC C-ter (domain or fragment)
stoichiometry N [2]: 2 and 3

MBP-IPAM C-ter (domain or fragment)
stoichiometry N [3]: 2 and 3

B1: MBP-CpoS C-ter (domain or fragment)
chain: ARARSRRVEIERQLEVVSMQIEELEEEYKALSEVYRANLEARRAVSKYCQELEEKILDLCKRHAATICSIEEDAKQEIRHQTERFKQRLQQNQNTCSQLTAELCKLRSENKALSERLQVQASRRKK
stoichiometry N [4]: 2 | stoichiometry N [5]: 4 and 8
